Data from article PMC12636523.

Target: cleaved SVS-Dlp (SVS-Dlp coexpressed with Mmp2-FLAG, cleaved in the N-terminal polypeptide) (Drosophila)
Assay: co-IP; S2R+ cells cotransfected with SVS-dlp and a Wnt, with or without Mmp2-FLAG; clarified lysate (2 mM Tris HCl, 150 mM NaCl, 1% NP-40 substitute, 1 mM EDTA, 5% glycerol, pH 7.4) on GFP-Trap Magnetic Agarose beads, 30 min at 4°C; Western blot under reducing conditions

| fold increase of Wnt pulled down against uncleaved Dlp (median) | fold increase of Wg pulled down, normalized to the amount of Dlp, against uncleaved Dlp (median) | Molecule |
| --- | --- | --- |
| 2.7 fold | – | Wnt6-3XHA (ligand) |
| 6.2 fold | – | Wnt2-3XHA (ligand) FTSVMLCGRIPGLTPGQRNMCREMPDALIALGEGHQLGAQECQHQFRGHRWNCSEVWQRNVFAHVIPTASREAAYTYAIASAGAAYAVTAACARGNISTCGCDVRHKATPTGGGTPDEPWKWGGCSADVDFGMRYARRFMDARELERDSRTLMNLHNNRAGRTLVKKMLRTDCKCHGVSGSCVMKTCWKSLPPFRLVGDRLMLKYQKAKTVQAVKGKRGLRLVLSRKKHAGTARAQKPVLDWPKRMELIYLEASPNYCERSLQTGSQGTSGRTCQRTGHGPQSCDLLCCGRGHNTQHIRRTTQCRCQFRWCCEVKCDECDESYEEFTCK |
| – | 2.7 fold | Wg-HA (Wingless with 3XHA tag) (ligand) GSSLSQVEGKQKSGRGRGSMWWGIAKVGEPNNITPIMYMDPAIHSTLRRKQRRLVRDNPGVLGALVKGANLAISECQHQFRNRRWNCSTRNFSRGKNLFGKIVDRGCRETSFIYAITSAAVTHSIARACSEGTIESCTCDYSHQSRSPQANHQAGSVAGVRDWEWGGCSDNIGFGFKFSREFVDTGERGRNLREKMNLHNNEAGRAHVQAEMRQECKCHGMSGSCTVKTCWMRLANFRVIGDNLKARFDGATRVQVTNSLRATNALAPVSPNAAGSNSVGSNGLIIPQSGLVYGEEEERMLNDHMPDILLENSHPISKIHHPNMPSPNSLPQAGQRGGRNGRRQGRKHNRYHFQLNPHNPEHKPPGSKDLVYLEPSPSFCEKNLRQGILGTHGRQCNETSLGVDGCGLMCCGRGYRRDEVVVVERCACTFHWCCEVKCKLCRTKKVIYTCL |
| 5.9 fold | – | Wnt4-3XFLAG (ligand) QVRNEDQLLMVGQNGDLDSSNPAIHHQQHQQHQQHQQHQQHQSNHNLNNGNMNSTILNTLMGNNAGQVVNSSPGGGGSMINQLGSSTSSVPSVIGGGVGSVGNPWHSAVGLGVPGNGMGLPSSHGLGGNMGSHPHGHALAGLAKLGIIVPGGQGLPGNLGYGGTMLNGGGVGGAAGMGLGIGSNTNNMDMQQGLYNEHFISEHTVMAVFTSQGQVGGPCRYMPATRRQNHQCRKETGLPGTLSEARRLATTHCEEQFRYDRWNCSIETRGKRNIFKKLYKETAFVHALTAAAMTHSIARACAEGRMTKCSCGPKKHNREAQDFQWGGCNDNLKHGKRVTRSFLDLRGGDGDEVSEILRHDSEVGIEAVSSQMMDKCKCHGVSGSCSMKTCWKKMADFNATATLLRQKYNEAIRKAPNQRSMRQVSSSRMKKPKQRRKKPQQSQYTTLYYLETSPSYCAVTKDRQCLHPDNCGTLCCGRGYTTQVVKQVEKCRCRFNNGRCCQLICDYCQRLENKYFCK |
